According to publication PMC5548887 (2017):

How the values were obtained:
[1] = molecular target: UbcH7 K96S (UniProt P68036 1-154, K96S); test: ITC
[2] = molecular target: UbcH7 wild type (UniProt P68036 1-154); test: ITC

B1: HHARI^ΔHG (protein)
chain: MDSDEGYNYEFDEDEECSEEDSGAEEEEDEDDDEPDDDTLDLGEVELVEPGLGVGGERDGLLCGETGGGGGSALGPGGGGGGGGGGGGGGPGHEQEEDYRYEVLTAEQILQHMVECIREVNEVIQNPATITRILLSHFNWDKEKLMERYFDGNLEKLFAECHVINPSKKSRTRQMNTRSSAQDMPCQICYLNYPNSYFTGLECGHKFCMQCWSEYLTTKIMEEGMGQTISCPACDILVDDNTVMRLITDSKVKLKYQHLITNSFVECNRLLKWCPAPDCHHVVKVQYPDAKPVRCKCGRQFCFNCGENWHDPVKCKWLKKWIKKCDDDSETSNWIAANTKECPKCHVTIEKDGGCNHMVCRNQNCKAEFCWVCLGPWEPHGSAWYNCNRYNEDDAKAA
- Kd [1]: 15.7 µM
- Kd [2]: 0.965 µM
